The stoichiometry N is a count of units in the complex or per binding partner.

The target of this assay is AbTFM (A. baumannii tautomerase family member) (Acinetobacter baumannii). The assay can be described thus: crystal structure; sitting-drop crystals at 296 K from 0.2 M ammonium nitrate, PEG 3350; protein in 20 mM HEPES-NaOH pH 6.8, 150 mM NaCl; space group H3, one subunit in the asymmetric unit, trimer by the crystallographic threefold axis.

“AbTFM (A. baumannii tautomerase family member) (natural protein)” had a stoichiometry N of 3.

The values are drawn from article PMC9813972.
